Target: p53 (UniProt P04637)
Experiment: cell-based or functional assay

Chain of p53 (P04637 whole entry): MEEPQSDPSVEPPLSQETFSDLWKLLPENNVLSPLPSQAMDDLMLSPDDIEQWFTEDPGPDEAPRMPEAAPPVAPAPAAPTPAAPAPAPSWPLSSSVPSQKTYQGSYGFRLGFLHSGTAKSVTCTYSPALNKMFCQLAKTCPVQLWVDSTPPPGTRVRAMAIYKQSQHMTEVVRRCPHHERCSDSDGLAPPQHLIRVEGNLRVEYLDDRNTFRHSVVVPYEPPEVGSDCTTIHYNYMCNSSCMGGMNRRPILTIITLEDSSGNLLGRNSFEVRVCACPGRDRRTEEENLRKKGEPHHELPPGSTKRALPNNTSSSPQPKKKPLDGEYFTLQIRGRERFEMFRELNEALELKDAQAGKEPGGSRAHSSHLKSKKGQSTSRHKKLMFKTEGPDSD

Substance: Kaposi's sarcoma-associated herpesvirus latency-associated nuclear antigen 2 (LANA2) (from UniProt F5HIC6 1-566)
- inhibition of doxorubicin-induced (endogenous p53) activation of the pG13-Luc reporter in U2OS cells: 57%
- inhibition of p53 activation of the pG13-Luc reporter in SAOS-2 cells: 87%
- subdiploid (apoptotic) fraction of SAOS-2 cells expressing p53 with LANA2, propidium iodide flow cytometry: 10.8%

Reference: patent US6866854
